The results in this text go back to the supplement of paper PMC6379048.

Common to all, as to test: EC50 of free RNA motif oligo competing protein binding to immobilised probe
One series addresses T1, SF3B5 (UniProt Q9BWJ5).
T1 sequence: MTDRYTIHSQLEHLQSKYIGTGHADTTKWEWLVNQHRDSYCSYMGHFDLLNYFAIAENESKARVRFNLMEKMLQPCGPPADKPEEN
Summed up: (§1)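 Free RNA oligos (0 nM to 30 μM) were pre-incubated with HEK293-FT lysate (2.5 mg protein/well) for 1 h at 4°C, followed by 30 min at 4°C with the same 5′-amino-C6 oligos coupled to NHS-Sepharose beads. Bound proteins were quantified by label-free LC-MS/MS and normalised to the control. EC50 was derived from a four-parameter log-logistic fit, and Kd was obtained by multiplying EC50 by a protein-dependent depletion factor.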

A further series concerns the target CSNK2A1 (UniProt P68400). In outline: as §1
The next series has as its target T2, UPF1 (UniProt Q92900).
T2 sequence: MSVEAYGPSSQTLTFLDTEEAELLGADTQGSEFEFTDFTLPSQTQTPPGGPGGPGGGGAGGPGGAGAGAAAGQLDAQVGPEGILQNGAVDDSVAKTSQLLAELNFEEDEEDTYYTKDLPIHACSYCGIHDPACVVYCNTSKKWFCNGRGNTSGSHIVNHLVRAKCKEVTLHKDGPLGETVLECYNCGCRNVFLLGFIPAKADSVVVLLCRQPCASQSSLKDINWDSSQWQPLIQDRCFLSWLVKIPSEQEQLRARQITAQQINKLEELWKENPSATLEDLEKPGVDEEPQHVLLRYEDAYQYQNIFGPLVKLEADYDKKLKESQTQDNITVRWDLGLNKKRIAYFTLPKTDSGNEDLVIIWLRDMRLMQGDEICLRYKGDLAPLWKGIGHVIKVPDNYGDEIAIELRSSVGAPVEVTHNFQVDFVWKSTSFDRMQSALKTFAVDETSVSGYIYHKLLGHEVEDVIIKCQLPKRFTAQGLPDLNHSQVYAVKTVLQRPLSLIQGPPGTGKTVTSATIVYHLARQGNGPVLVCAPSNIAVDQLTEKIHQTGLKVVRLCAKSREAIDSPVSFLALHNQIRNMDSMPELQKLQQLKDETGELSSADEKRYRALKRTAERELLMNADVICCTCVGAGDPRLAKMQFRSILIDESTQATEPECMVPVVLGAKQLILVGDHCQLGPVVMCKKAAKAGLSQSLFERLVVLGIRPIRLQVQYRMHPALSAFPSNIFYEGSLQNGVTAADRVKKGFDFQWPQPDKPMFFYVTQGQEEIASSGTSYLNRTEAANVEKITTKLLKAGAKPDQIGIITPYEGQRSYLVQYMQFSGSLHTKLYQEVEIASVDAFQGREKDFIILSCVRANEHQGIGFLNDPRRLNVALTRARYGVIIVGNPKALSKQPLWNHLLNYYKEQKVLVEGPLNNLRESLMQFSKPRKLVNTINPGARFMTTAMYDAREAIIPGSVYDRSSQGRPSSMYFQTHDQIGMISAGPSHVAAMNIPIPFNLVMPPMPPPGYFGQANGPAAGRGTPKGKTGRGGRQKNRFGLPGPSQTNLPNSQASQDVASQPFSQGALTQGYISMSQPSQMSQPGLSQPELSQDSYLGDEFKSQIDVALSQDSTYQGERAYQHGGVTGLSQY
In outline: as §1

The target in the next series is T3, HMGB2 (UniProt P26583).
T3 sequence: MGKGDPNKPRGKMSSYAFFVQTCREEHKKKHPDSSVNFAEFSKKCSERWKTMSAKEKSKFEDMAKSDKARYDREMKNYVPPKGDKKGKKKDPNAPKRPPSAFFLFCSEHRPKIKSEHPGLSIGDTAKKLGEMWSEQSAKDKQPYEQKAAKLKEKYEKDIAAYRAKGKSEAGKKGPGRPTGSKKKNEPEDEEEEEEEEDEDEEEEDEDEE
In outline: as §1

The next series concerns the target GNB2L1 (UniProt P63244). Summed up: as §1
In the next series the target is HNRNPK (UniProt P61978). In outline:
as §1

Another series addresses RPS13 (UniProt P62277). Summed up: as §1
In a further series the target is RPS28 (UniProt P62857). In outline: as §1
The next series deals with T4, ERAL1 (UniProt O75616).
T4 sequence: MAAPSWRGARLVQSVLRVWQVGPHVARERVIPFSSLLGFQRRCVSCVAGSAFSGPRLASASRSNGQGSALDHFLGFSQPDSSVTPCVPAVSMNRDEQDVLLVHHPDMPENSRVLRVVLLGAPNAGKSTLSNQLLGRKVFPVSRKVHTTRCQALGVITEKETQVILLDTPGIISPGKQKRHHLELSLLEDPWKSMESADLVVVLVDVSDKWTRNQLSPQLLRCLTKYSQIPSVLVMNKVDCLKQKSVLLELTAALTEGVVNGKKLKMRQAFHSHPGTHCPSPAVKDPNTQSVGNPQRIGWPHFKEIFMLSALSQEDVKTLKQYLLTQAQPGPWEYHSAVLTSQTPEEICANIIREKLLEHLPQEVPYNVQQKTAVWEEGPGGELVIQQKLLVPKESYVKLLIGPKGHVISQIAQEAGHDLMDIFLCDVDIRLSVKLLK
Summed up: as §1

Another series deals with T5, HNRNPA0 (UniProt Q13151).
T5 sequence: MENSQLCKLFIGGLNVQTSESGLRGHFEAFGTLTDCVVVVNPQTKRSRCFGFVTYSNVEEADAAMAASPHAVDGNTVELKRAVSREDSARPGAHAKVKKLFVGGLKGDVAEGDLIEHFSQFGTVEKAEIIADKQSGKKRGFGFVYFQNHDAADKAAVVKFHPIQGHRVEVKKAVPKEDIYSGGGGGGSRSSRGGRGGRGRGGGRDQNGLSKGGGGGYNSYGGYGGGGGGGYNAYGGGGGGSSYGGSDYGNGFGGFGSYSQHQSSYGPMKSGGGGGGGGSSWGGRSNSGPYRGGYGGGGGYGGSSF
Summed up: as §1

Chain of CSNK2A1 (P68400 whole entry, looked up): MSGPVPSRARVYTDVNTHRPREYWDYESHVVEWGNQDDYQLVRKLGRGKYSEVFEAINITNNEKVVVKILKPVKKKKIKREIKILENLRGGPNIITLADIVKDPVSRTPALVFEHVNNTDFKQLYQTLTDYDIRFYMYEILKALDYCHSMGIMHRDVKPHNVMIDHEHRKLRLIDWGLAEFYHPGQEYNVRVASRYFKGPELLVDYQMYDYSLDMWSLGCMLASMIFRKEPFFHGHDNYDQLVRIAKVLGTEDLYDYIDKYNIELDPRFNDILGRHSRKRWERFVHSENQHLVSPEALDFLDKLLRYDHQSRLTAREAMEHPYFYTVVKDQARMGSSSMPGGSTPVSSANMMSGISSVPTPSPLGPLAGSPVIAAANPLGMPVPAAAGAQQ

Turning to AAUAAA, the concentration for a half-maximal effect (EC50) with SF3B5 amounted to 1210 nM; with CSNK2A1, 124 nM; in the series with UPF1, 4900 nM; with HMGB2, 2.5 nM.
Turning to CUGUCCU, the EC50 with GNB2L1 came out at 2980 nM; with HNRNPK it was 3040 nM; with RPS13 it was 123 nM; with RPS28 it was 212 nM.
As for UAUUUAU, the values for the EC50 in the series with ERAL1 and in the series with HNRNPA0 were 27.8 nM and 4860 nM, respectively.
